The results in this text go back to US20240109957A1 (ANNEXON, published 2024).

The target of test [1] is T1, human complement C1q (Homo sapiens, UniProt P02745 23-245; P02746 28-253; P02747 29-245).
T1 construct: In the assays this was native C1q in normal human serum or plasma; also called Human C1q
As to the kind of experiment: Not stated; affinity given in descriptive text.

Test [2] deals with T1, human complement C1q. As to the kind of experiment: cell-based or functional assay.

T1 sequence (P02745 23-245 limits assumed, chain 1 of 3): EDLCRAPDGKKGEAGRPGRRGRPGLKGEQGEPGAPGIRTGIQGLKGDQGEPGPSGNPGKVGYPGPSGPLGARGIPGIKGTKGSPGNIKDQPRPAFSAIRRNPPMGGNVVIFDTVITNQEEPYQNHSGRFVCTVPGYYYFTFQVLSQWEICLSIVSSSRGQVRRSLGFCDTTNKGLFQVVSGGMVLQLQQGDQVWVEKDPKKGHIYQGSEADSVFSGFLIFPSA
T1 sequence (P02746 28-253 limits assumed, chain 2 of 3): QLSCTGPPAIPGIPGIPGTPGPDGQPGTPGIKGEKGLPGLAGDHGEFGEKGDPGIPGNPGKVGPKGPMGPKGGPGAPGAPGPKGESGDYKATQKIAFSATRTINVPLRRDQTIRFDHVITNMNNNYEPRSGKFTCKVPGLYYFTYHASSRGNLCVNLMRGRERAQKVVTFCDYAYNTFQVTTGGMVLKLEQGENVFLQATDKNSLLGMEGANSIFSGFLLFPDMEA
T1 sequence (P02747 29-245 limits assumed, chain 3 of 3): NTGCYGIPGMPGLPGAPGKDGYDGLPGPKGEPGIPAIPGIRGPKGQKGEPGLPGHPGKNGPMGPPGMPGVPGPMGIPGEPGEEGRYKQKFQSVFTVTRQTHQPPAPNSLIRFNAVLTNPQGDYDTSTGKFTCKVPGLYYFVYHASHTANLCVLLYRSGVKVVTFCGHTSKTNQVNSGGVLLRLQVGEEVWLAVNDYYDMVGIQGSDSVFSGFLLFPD

B1: FabA (anti-C1q antibody Fab fragment) (Fab)
heavy: QVQLVQSGAELKKPGASVKVSCKSSGYHFTSYWMHWVKQAPGQGLEWIGVIHPNSGSINYNEKFESRVTITVDKSTSTAYMELSSLRSEDTAVYYCAGERDSTEVLPMDYWGQGTTVTVSSASTKGPSVFPLAPSSKSTSGGTAALGCLVKDYFPEPVTVSWNSGALTSGVHTFPAVLQSSGLYSLSSVVTVPSSSLGTQTYICNVNHKPSNTKVDKKVEPKSCDKTHT
light: DVQITQSPSSLSASLGERATINCRASKSINKYLAWYQQKPGKAPKLLIYSGSTLQSGIPARFSGSGSGTDFTLTISSLEPEDFAMYYCQQHNEYPLTFGQGTKLEIKRTVAAPSVFIFPPSDEQLKSGTASVVCLLNNFYPREAKVQWKVDNALQSGNSQESVTEQDSKDSTYSLSSTLTLSKADYEKHKVYACEVTHQGLSSPVTKSFNRGEC
notes: Heavy chain Fab fragment truncated after the first constant domain of IgG1; also called anti-C1q Fab; anti-C1q monovalent Fab
On to B1, for which, in the test with human complement C1q [1], the Kd (as a rule, the concentration at which binding is half-saturated) is 0.01 nM. In the test with human complement C1q [2], the “IC50 for inhibition of complement deposition (C4 and C3d on human RBCs, flow cytometry)” value was roughly 10 nM; the “IC50 for inhibition of hemolysis (CAD-sensitised human RBCs, normal human serum, absorbance at 415 nM)” value was roughly 10 nM.
